Experimental data reported in the supplement of paper PMC9876800.

System: peptide library, one residue held at a place counted from the S/T acceptor
Assay: relative phosphorylation of the sub-library (ratio to the mean residue at this position); higher = residue favoured
How it was run: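 Relative sub-library phosphorylation, a ratio to the mean residue at that position, was obtained by phosphorimaging and densitometry of spots on streptavidin membranes. Before capture, purified recombinant kinases were incubated for 90 min under kinase-specific conditions with 50 μM biotinylated degenerate peptide sub-libraries and 50 μM ATP spiked with γ-32P-ATP. Each sub-library fixed one residue at one position around a central Ser/Thr.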

PRKG2, construct: Full length, human, sequence (Q13237 whole entry, looked up): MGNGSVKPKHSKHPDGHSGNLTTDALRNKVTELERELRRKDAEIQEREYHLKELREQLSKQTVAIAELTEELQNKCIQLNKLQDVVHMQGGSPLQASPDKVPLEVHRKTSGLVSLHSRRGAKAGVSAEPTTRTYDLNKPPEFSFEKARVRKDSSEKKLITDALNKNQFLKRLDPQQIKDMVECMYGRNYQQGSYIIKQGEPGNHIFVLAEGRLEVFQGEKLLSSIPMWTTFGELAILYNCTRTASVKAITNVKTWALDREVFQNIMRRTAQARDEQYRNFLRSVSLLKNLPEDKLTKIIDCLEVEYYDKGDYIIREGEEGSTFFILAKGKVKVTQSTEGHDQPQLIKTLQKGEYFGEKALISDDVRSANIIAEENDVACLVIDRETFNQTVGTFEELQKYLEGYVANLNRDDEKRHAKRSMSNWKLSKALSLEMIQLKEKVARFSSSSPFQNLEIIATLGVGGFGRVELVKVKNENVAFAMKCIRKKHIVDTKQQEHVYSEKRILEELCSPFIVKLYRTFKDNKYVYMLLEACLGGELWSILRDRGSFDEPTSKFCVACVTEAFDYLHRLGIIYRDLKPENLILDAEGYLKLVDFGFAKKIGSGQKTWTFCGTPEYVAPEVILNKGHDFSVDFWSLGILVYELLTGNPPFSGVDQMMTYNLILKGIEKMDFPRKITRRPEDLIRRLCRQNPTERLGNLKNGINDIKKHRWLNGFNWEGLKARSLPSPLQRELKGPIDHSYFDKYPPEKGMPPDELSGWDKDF
MAP3K1, construct: aa1174-end, human, sequence (Q13233 1174-1512, looked up): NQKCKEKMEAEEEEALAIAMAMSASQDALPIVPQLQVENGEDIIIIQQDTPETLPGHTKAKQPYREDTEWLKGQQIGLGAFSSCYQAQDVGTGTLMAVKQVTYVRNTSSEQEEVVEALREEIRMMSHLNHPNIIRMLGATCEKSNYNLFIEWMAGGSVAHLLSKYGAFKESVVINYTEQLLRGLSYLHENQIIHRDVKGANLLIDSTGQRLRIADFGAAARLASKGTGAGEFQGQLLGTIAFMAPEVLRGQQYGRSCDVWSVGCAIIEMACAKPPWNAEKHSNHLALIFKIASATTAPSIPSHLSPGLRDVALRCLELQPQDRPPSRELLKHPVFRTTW
GSK3B, construct: Full length, human, sequence (P49841 whole entry, looked up): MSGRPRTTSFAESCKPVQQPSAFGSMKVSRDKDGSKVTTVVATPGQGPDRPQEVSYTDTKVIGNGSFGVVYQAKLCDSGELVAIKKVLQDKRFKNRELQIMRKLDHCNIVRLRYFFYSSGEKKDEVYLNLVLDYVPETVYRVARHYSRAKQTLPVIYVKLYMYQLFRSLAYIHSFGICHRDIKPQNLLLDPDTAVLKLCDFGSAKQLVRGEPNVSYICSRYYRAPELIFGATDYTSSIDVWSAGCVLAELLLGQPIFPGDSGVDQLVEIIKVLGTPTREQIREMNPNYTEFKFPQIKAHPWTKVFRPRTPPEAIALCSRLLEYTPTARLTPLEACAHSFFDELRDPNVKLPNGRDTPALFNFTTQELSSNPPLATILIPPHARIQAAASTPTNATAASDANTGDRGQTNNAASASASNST
PRKD2, construct: Full length, human, sequence (Q9BZL6 whole entry, looked up): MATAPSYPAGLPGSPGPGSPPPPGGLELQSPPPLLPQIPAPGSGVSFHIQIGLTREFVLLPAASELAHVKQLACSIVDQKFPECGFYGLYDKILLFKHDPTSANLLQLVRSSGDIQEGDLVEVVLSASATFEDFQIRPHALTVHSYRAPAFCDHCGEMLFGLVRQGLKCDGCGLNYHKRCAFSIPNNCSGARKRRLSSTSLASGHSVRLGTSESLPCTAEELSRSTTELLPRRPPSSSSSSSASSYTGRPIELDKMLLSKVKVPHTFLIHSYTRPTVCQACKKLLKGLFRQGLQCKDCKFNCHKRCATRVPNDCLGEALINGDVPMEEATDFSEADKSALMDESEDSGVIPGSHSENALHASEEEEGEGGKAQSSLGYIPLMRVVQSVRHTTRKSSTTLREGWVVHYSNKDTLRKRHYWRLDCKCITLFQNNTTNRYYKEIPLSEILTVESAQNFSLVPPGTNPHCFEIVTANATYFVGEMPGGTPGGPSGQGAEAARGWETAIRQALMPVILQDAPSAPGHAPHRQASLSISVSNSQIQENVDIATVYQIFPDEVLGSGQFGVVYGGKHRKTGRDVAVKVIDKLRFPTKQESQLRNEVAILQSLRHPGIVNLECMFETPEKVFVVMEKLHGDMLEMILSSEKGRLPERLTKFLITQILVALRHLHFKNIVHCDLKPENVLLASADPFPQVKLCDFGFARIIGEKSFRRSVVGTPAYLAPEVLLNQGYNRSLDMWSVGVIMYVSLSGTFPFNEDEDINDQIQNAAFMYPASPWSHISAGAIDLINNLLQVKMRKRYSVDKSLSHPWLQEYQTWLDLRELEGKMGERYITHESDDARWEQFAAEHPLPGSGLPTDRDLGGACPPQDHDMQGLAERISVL

GSK3B, construct: Full length, human (from UniProt P49841)
relative phosphorylation
Conditions | at +1 | at +2 | at +3 | at +4 | at -1 | at -2 | at -3 | at -4 | at -5
A fixed | 0.927 | 1.01 | 0.893 | 0.871 | 1.05 | 1.09 | 1.63 | 1.02 | 1.15
D fixed | 0.826 | 0.857 | 0.911 | 0.938 | 0.885 | 0.92 | 0.898 | 0.969 | 0.83
E fixed | 0.818 | 0.917 | 1.23 | 2.42 | 0.855 | 0.898 | 0.865 | 0.851 | 0.83
F fixed | 0.942 | 1.05 | 1.06 | 0.871 | 0.863 | 0.855 | 0.812 | 0.918 | 1.05
G fixed | 0.928 | 0.92 | 0.966 | 0.843 | 1.17 | 1.1 | 1.47 | 1.18 | 1.21
H fixed | 0.985 | 1.16 | 1.1 | 0.988 | 1.02 | 0.885 | 0.883 | 0.989 | 1.02
I fixed | 1.02 | 0.984 | 0.929 | 0.795 | 0.889 | 1.01 | 0.871 | 0.913 | 1
K fixed | 1.02 | 1.02 | 1.01 | 0.983 | 1.1 | 1.12 | 0.935 | 1.11 | 0.979
L fixed | 0.966 | 0.994 | 0.923 | 0.849 | 0.916 | 0.882 | 0.785 | 0.966 | 1.03
M fixed | 0.975 | 0.99 | 1.06 | 0.911 | 1.08 | 0.882 | 0.891 | 0.943 | 0.968
N fixed | 0.963 | 1.12 | 0.983 | 0.992 | 1.04 | 0.935 | 0.899 | 1.02 | 0.855
P fixed | 1.77 | 0.904 | 0.972 | 0.942 | 1.18 | 1.23 | 1.13 | 1.08 | 1.1
Q fixed | 1 | 1.09 | 0.986 | 0.92 | 1.09 | 0.931 | 0.889 | 0.942 | 0.895
R fixed | 1.01 | 1.05 | 1.05 | 0.848 | 1.06 | 1.48 | 1.36 | 1.06 | 0.973
V fixed | 1.02 | 0.908 | 0.887 | 0.8 | 0.916 | 0.977 | 0.904 | 0.982 | 1.04
W fixed | 0.977 | 1.01 | 0.997 | 1.03 | 0.962 | 0.957 | 0.913 | 1.05 | 1.08
Y fixed | 0.854 | 1.01 | 1.04 | 1 | 0.931 | 0.846 | 0.866 | 1.02 | 0.997
pThr fixed | 1.01 | 1 | 3.53 | 66.5 | 0.946 | 1.02 | 1.15 | 1.16 | 0.927
pTyr fixed | 1.14 | 1.04 | 2.26 | 2.62 | 1.66 | 1.13 | 1 | 1.15 | 0.929

MAP3K1, construct: aa1174-end, human (from UniProt Q13233)
relative phosphorylation
Conditions | at +1 | at +2 | at +3 | at +4 | at -1 | at -2 | at -3 | at -4 | at -5
A fixed | 0.537 | 1.1 | 0.749 | 0.741 | 0.7 | 1.08 | 1.07 | 1.01 | 1.04
D fixed | 0.324 | 0.73 | 0.46 | 0.814 | 1.35 | 1.11 | 1.04 | 1.21 | 1.21
E fixed | 0.309 | 0.439 | 0.395 | 0.711 | 0.98 | 0.858 | 1.14 | 1.08 | 1.23
F fixed | 1.12 | 0.619 | 1.17 | 0.878 | 0.741 | 1.01 | 0.862 | 1.06 | 0.837
G fixed | 0.785 | 0.9 | 0.977 | 1.14 | 1.22 | 1.31 | 1.44 | 1.33 | 1.67
H fixed | 0.853 | 1.27 | 1.03 | 1.23 | 1.89 | 1.33 | 1.19 | 1.17 | 1.19
I fixed | 2.35 | 0.826 | 1.35 | 1.13 | 0.522 | 0.69 | 0.849 | 0.721 | 0.812
K fixed | 0.593 | 1.57 | 0.996 | 1.04 | 0.791 | 0.644 | 0.659 | 0.899 | 0.897
L fixed | 1.31 | 0.49 | 1.35 | 0.914 | 0.711 | 1.03 | 0.772 | 0.715 | 0.565
M fixed | 1.88 | 1.03 | 1.46 | 1.1 | 1.23 | 1.29 | 1.16 | 0.793 | 0.832
N fixed | 0.688 | 1.38 | 0.727 | 1.02 | 1.57 | 1.26 | 0.989 | 0.996 | 1.09
P fixed | 0.343 | 0.583 | 0.773 | 0.923 | 0.893 | 0.839 | 1.13 | 0.952 | 1.07
Q fixed | 0.963 | 0.825 | 0.725 | 0.823 | 1.09 | 1.03 | 0.78 | 0.838 | 0.761
R fixed | 0.837 | 2.5 | 1.24 | 1.6 | 1.38 | 0.832 | 0.857 | 0.954 | 1.17
V fixed | 1.77 | 0.777 | 0.812 | 0.66 | 0.479 | 0.581 | 0.639 | 0.735 | 0.65
W fixed | 1.19 | 0.798 | 1.41 | 1.19 | 0.599 | 0.943 | 1.27 | 1.54 | 0.897
Y fixed | 1.15 | 1.17 | 1.36 | 1.08 | 0.855 | 1.16 | 1.15 | 0.982 | 1.09
pThr fixed | 0.504 | 0.403 | 0.516 | 0.644 | 0.679 | 0.909 | 1.05 | 0.952 | 1.05
pTyr fixed | 0.495 | 0.368 | 0.623 | 0.696 | 0.796 | 0.796 | 1.22 | 0.824 | 1.36

PRKD2, construct: Full length, human (from UniProt Q9BZL6)
relative phosphorylation
Conditions | at +1 | at +2 | at +3 | at +4 | at -1 | at -2 | at -3 | at -4 | at -5
A fixed | 0.733 | 0.998 | 0.83 | 0.983 | 0.788 | 1.13 | 0.848 | 1.19 | 1.26
D fixed | 0.55 | 1.02 | 0.913 | 1.22 | 0.704 | 0.232 | 0.153 | 0.433 | 0.319
E fixed | 0.422 | 0.622 | 0.731 | 0.928 | 0.452 | 0.404 | 0.266 | 0.885 | 0.286
F fixed | 0.883 | 0.718 | 0.749 | 0.907 | 0.592 | 0.592 | 0.345 | 0.718 | 0.788
G fixed | 0.986 | 1.31 | 1.65 | 1.43 | 0.613 | 0.516 | 0.679 | 1.51 | 0.762
H fixed | 0.977 | 1.06 | 1 | 1.15 | 1.03 | 0.838 | 0.658 | 0.963 | 0.517
I fixed | 0.932 | 0.434 | 0.532 | 0.602 | 0.402 | 0.417 | 0.222 | 0.593 | 1.1
K fixed | 1.22 | 1.07 | 1.11 | 1.14 | 2.6 | 2.73 | 2.59 | 1.86 | 0.788
L fixed | 1.1 | 0.627 | 0.772 | 0.675 | 1.04 | 0.785 | 0.28 | 0.698 | 2.71
M fixed | 1.12 | 0.71 | 0.656 | 0.732 | 0.886 | 1.62 | 0.424 | 1.13 | 0.752
N fixed | 2.43 | 2.02 | 1.44 | 1.19 | 1.73 | 1.06 | 0.682 | 0.778 | 0.634
P fixed | 0.399 | 1.89 | 2.6 | 1.42 | 1.49 | 0.415 | 0.992 | 0.512 | 1.35
Q fixed | 1.42 | 1.3 | 1.09 | 1.28 | 0.993 | 2.09 | 0.981 | 1.4 | 1.02
R fixed | 1.14 | 1.01 | 0.794 | 0.701 | 1.71 | 2.34 | 6.73 | 2.16 | 1.8
V fixed | 0.902 | 0.49 | 0.592 | 0.756 | 0.571 | 0.73 | 0.265 | 0.714 | 1.62
W fixed | 0.759 | 0.916 | 0.736 | 1.01 | 0.545 | 0.474 | 0.438 | 0.663 | 0.515
Y fixed | 1.02 | 0.804 | 0.796 | 0.889 | 0.857 | 0.625 | 0.443 | 0.79 | 0.78
pThr fixed | 0.67 | 0.623 | 0.888 | 0.916 | 0.194 | 0.233 | 0.213 | 0.628 | 0.39
pTyr fixed | 0.699 | 0.574 | 0.946 | 0.864 | 0.781 | 0.31 | 0.215 | 0.523 | 0.775

PRKG2, construct: Full length, human (from UniProt Q13237)
relative phosphorylation
Conditions | at +1 | at +2 | at +3 | at +4 | at -1 | at -2 | at -3 | at -4 | at -5
A fixed | 0.876 | 1.35 | 1.04 | 0.834 | 0.761 | 0.368 | 0.816 | 1.28 | 1.24
D fixed | 0.313 | 0.408 | 0.703 | 0.573 | 0.421 | 0.132 | 0.147 | 0.472 | 0.416
E fixed | 0.45 | 0.386 | 0.697 | 0.601 | 0.361 | 0.113 | 0.206 | 0.584 | 0.415
F fixed | 1.34 | 1.09 | 0.948 | 0.919 | 0.928 | 0.285 | 0.477 | 0.753 | 0.859
G fixed | 0.563 | 0.911 | 1.2 | 1.07 | 0.529 | 0.387 | 0.983 | 1.23 | 1.21
H fixed | 1.02 | 1.39 | 1.42 | 1.21 | 1.18 | 0.662 | 1.09 | 0.997 | 1.05
I fixed | 1.56 | 1.16 | 0.83 | 1.01 | 0.993 | 0.24 | 0.337 | 0.731 | 0.883
K fixed | 1.06 | 1.21 | 1.29 | 1.05 | 1.78 | 4.63 | 2.46 | 1.74 | 2.05
L fixed | 1.29 | 0.936 | 0.943 | 0.883 | 1.16 | 0.321 | 0.376 | 0.789 | 0.745
M fixed | 1.36 | 0.935 | 0.893 | 1.1 | 1.12 | 0.261 | 0.412 | 0.896 | 0.722
N fixed | 0.801 | 0.765 | 0.893 | 1.04 | 0.921 | 0.436 | 0.577 | 0.766 | 0.803
P fixed | 0.28 | 0.748 | 0.932 | 1.55 | 1.26 | 0.349 | 1.32 | 1.14 | 1.07
Q fixed | 1.11 | 0.962 | 0.924 | 1.04 | 0.897 | 0.465 | 0.832 | 0.968 | 0.836
R fixed | 1.41 | 1.21 | 1.49 | 1 | 1.76 | 7.58 | 5.47 | 2.24 | 2.01
V fixed | 1.9 | 1.44 | 0.927 | 0.937 | 1.07 | 0.234 | 0.399 | 0.928 | 0.905
W fixed | 0.766 | 1.01 | 0.832 | 1.29 | 0.66 | 0.283 | 0.514 | 0.762 | 0.884
Y fixed | 0.901 | 1.09 | 1.04 | 0.892 | 1.2 | 0.265 | 0.575 | 0.716 | 0.902
pThr fixed | 0.816 | 0.427 | 0.557 | 0.911 | 0.426 | 0.306 | 0.471 | 0.756 | 0.666
pTyr fixed | 0.634 | 0.543 | 0.976 | 0.751 | 0.502 | 0.277 | 0.437 | 0.502 | 0.698
